From article PMC11315690

Target: N-terminal structural domain of human Nogo-B protein (hNogo-B-N), residues 1-185, with human Fc fragment (human) (UniProt Q9NQC3)
Experiment: SPR

UniProt Q9NQC3, sequence (Q9NQC3 1-185): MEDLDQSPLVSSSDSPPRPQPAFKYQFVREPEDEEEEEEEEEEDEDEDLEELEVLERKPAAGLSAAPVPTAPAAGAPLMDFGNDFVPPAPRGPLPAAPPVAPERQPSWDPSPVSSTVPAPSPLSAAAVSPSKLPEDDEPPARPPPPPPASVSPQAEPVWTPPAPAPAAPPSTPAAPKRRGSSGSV

Kd: 1.37 µM
Substance: human proGCG protein (hproGCG) with C-terminal Strep-tag II (natural protein)
